Laboratory results as given in paper doi:10.1101/2022.05.16.492121 (bioRxiv, 2022).

Target: the molecule itself
Assay: near-TIRF microscopy

B1: Saccharomyces cerevisiae septin complex (Cdc3, Cdc10, Cdc11, Cdc12), polymerizable hetero-oligomer (complex)
chain 1: MSLKEEQVSIKQDPEQEERQHDQFNDVQIKQESQDHDGVDSQYTNGTQNDDSERFEAAESDVKVEPGLGMGITSSQSEKGQVLPDQPEIKFIRRQINGYVGFANLPKQWHRRSIKNGFSFNLLCVGPDGIGKTTLMKTLFNNDDIEANLVKDYEEELANDQEEEEGQGEGHENQSQEQRHKVKIKSYESVIEENGVKLNLNVIDTEGFGDFLNNDQKSWDPIIKEIDSRFDQYLDAENKINRHSINDKRIHACLYFIEPTGHYLKPLDLKFMQSVYEKCNLIPVIAKSDILTDEEILSFKKTIMNQLIQSNIELFKPPIYSNDDAENSHLSERLFSSLPYAVIGSNDIVENYSGNQVRGRSYPWGVIEVDNDNHSDFNLLKNLLIKQFMEELKERTSKILYENYRSSKLAKLGIKQDNSVFKEFDPISKQQEEKTLHEAKLAKLEIEMKTVFQQKVSEKEKKLQKSETELFARHKEMKEKLTKQLKALEDKKKQLELSINSASPNVNHSPVPTKKKGFLR
chain 2: MDPLSSVQPASYVGFDTITNQIEHRLLKKGFQFNIMVVGQSGLGKSTLINTLFASHLIDSATGDDISALPVTKTTEMKISTHTLVEDRVRLNINVIDTPGFGDFIDNSKAWEPIVKYIKEQHSQYLRKELTAQRERFITDTRVHAILYFLQPNGKELSRLDVEALKRLTEIANVIPVIGKSDTLTLDERTEFRELIQNEFEKYNFKIYPYDSEELTDEELELNRSVRSIIPFAVVGSENEIEINGETFRGRKTRWSAINVEDINQCDFVYLREFLIRTHLQDLIETTSYIHYEGFRARQLIALKENANSRSSAHMSSNAIQR
chain 3: MSGIIDASSALRKRKHLKRGITFTVMIVGQSGSGRSTFINTLCGQQVVDTSTTILLPTDTSTEIDLQLREETVELEDDEGVKIQLNIIDTPGFGDSLDNSPSFEIISDYIRHQYDEILLEESRVRRNPRFKDGRVHCCLYLINPTGHGLKEIDVEFIRQLGSLVNIIPVISKSDSLTRDELKLNKKLIMEDIDRWNLPIYNFPFDEDEISDEDYETNMYLRTLLPFAIIGSNEVYEMGGDVGTIRGRKYPWGILDVEDSSISDFVILRNALLISHLHDLKNYTHEILYERYRTEALSGESVAAESIRPNLTKLNGSSSSSTTTRRNTNPFKQSNNINNDVLNPASDMHGQSTGENNETYMTREEQIRLEEERLKAFEERVQQELLLKRQELLQREKELREIEARLEKEAKIKQEE
chain 4: MSAATATAAPVPPPVGISNLPNQRYKIVNEEGGTFTVMLCGESGLGKTTFINTLFQTVLKRADGQQHRQEPIRKTVEIDITRALLEEKHFELRVNVIDTPGFGDNVNNNKAWQPLVDFIDDQHDSYMRQEQQPYRTKKFDLRVHAVLYFIRPTGHGLKPIDIETMKRLSTRANLIPVIAKADTLTAQELQQFKSRIRQVIEAQEIRIFTPPLDADSKEDAKSGSNPDSAAVEHARQLIEAMPFAIVGSEKKFDNGQGTQVVARKYPWGLVEIENDSHCDFRKLRALLLRTYLLDLISTTQEMHYETYRRLRLEGHENTGEGNEDFTLPAIAPARKLSHNPRYKEEENALKKYFTDQVKAEEQRFRQWEQNIVNERIRLNGDLEEIQGKVKKLEEQVKSLQVKKSHLK
binding result: binds
